Data published in publication PMC9499628, “Nuclear Factor Kappa B Promotes Ferritin Heavy Chain Expression in Bombyx mori in Response to B. mori Nucleopolyhedrovirus Infection”.

T1: BmRelish RHD (RelRHD) (Bombyx mori, UniProt A0A8R2LW60 51-335)
T1 sequence: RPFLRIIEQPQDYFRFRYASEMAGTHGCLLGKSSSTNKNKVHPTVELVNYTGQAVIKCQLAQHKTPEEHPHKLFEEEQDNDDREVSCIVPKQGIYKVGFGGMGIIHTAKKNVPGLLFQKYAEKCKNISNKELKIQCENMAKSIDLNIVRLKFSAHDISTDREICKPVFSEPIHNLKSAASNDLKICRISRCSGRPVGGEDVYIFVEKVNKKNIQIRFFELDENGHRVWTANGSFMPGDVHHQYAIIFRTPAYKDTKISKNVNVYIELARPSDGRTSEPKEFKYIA


Tests used:
BmRelish RHD (RelRHD) [1] = biological target: T1, BmRelish RHD (RelRHD); assay: competition; mutant competitor against CRE4 probe; band not affected; Chemiluminescent EMSA Kit (Beyotime), manufacturer's instructions; buffer, salt, pH and temperature not stated; conditions: protein: recombinant; tags: 6xHis (pET-30a); chain copies: 2; blunt
BmRelish RHD (RelRHD) [2] = biological target: T1, BmRelish RHD (RelRHD); assay: EMSA; cold probe weakens band; Chemiluminescent EMSA Kit (Beyotime), manufacturer's instructions; buffer, salt, pH and temperature not stated; conditions: protein: recombinant; tags: 6xHis (pET-30a); chain copies: 2; label: 5' biotin (unlabelled as cold probe); blunt
BmRelish RHD (RelRHD) [3] = biological target: T1, BmRelish RHD (RelRHD); assay: competition; mutant competitor against CRE2 probe; band not affected; Chemiluminescent EMSA Kit (Beyotime), manufacturer's instructions; buffer, salt, pH and temperature not stated; conditions: protein: recombinant; tags: 6xHis (pET-30a); chain copies: 2; blunt

Row | Binder | binding result (BmRelish RHD (RelRHD) [2]) | also measured
1 | Mut-CRE4 (dsDNA) DNA 1: AATAAGTGCCAAACACTCCATCTCGC DNA 2: GCGAGATGGAGTGTTTGGCACTTATT |  | binding result (BmRelish RHD (RelRHD) [1]): no binding
2 | probe-CRE4 (dsDNA) DNA 1: AATAAGTGGGAATCTCTCCATCTCGC DNA 2: GCGAGATGGAGAGATTCCCACTTATT | binds | 
3 | Mut-CRE2 (dsDNA) DNA 1: AATGTACATTATCTCCATCTCG DNA 2: CGAGATGGAGATAATGTACATT |  | binding result (BmRelish RHD (RelRHD) [3]): no binding
4 | probe-CRE2 (dsDNA) DNA 1: AATGTAGGTTATTTCCATCTCG DNA 2: CGAGATGGAAATAACCTACATT | binds | 
